Experimental data reported in PMC6803640, “Oligomeric state, hydrodynamic properties and target recognition of human Calcium and Integrin Binding protein 2 (CIB2)” (Scientific Reports, 2019).

How the values were obtained:
[1] = Dynamic light scattering; type: physicochemical; conditions: 37 °C, fractions eluted from SEC (CIB2 A2 band), mean ± SEM; n = 15 (CIB2), 18 (Rec), 30 (CaM); 1.8 µM CIB2, 11 µM Rec, 7.4 µM CaM
Procedure: DLS measurements were performed using Zetasizer Nano-S (Malvern Instruments) at 37 °C by setting the same parameters for hydrodynamic diameter estimation as in ref.[26]. The estimation was based on 15–30 measurements, each consisting of at least 13 repetitions; data in Table 1 are reported as mean ± standard error of mean (SEM). DLS samples for each protein are the same collected in the Analytical Size Exclusion Chromatography.
His-tagged proteins, and then blocked via amine coupling as explained above. Preparation of the […]
approximately 2250 RU of CIB2 immobilized. In binding experiments, peptide concentration was varied in the 230 nM- 30 μM range for both α7B_M, and α7B_C, and experiments were repeated 4 times, both with the HBS buffer described above (containing 1 mM MgCl2) and with further addition of 2 mM CaCl2. Flow rate was set to 20 μl min−1 in all binding experiments, and the dissociation […]
Figure S1: DLS measurements of the SEC collected peaks. CIB2 band A2 (A), Rec (B) and CaM (C). Each data set consisted of 15-30 measurements (grey lines), with 13-15 repetitions each. Colored lines are referred to the average distribution. Temperature was set to 37°C and samples were equilibrated for 2 min before measurements.
Figure S2: Time-resolved proteolysis experiments. […]

[2] = system: Rec; conditions: presence of Ca^2+; cited from earlier work
Description: Solvation of their large hydrophobic surfaces might influence the intera ...

[3] = Analytical size exclusion chromatography; type: physicochemical; conditions: analytical SEC, 20 mM HEPES pH 7.4, 150 mM KCl, 1 mM DTT, 1 mM Mg^2+, 2 mM Ca^2+; CIB2 ∼70 µM (A2 band), Rec ∼80 µM, CaM ∼110 µM
Procedure: The molecular weight (MW) of the proteins was determined before and after DSBU-modification as previously described[7] in the same buffer (20 mM HEPES, pH 7.5, 1 mM DTT, 1 mM Mg^2+ and 2 mM Ca^2+). […] Standard calibration curve for MW estimation was the same used in our previous study.

B1: Rec: bovine Rec, Ca^2+-sensor protein (protein, UniProt P21457 2-202, looked up)
Recoverin: GNSKSGALSKEILEELQLNTKFTEEELSSWYQSFLKECPSGRITRQEFQTIYSKFFPEADPKAYAQHVFRSFDANSDGTLDFKEYVIALHMTSAGKTNQKLEWAFSLYDVDGNGTISKNEVLEIVTAIFKMISPEDTKHLPEDENTPEKRAEKIWGFFGKKDDDKLTEKEFIEGTLANKEILRLIQFEPQKVKEKLKEKKL
Q: For B1, which “DLS Ø hydrodynamic diameter” value [1] is on record?
A: Its value is 5.0 ± 0.1 nm.

Q: What about the “concentration above which dimers were isolated” value [2] of the same molecule?
A: Its value is “above 100 μM”.

Q: And the “MW^SEC” value [3]?
A: Its value is 33.5 kDa.
